{"source": "patent US20140005125A1", "about": "(Molecular Partners, published 2014)", "binders": {"B1": {"name": "DARPin #50 (designed binder)", "chain": "MRGSHHHHHHGSDLGKKLLEAARAGQDDEVRELLKAGADVNAKDLNGQTPLHLAADIGHLEIVEVLLKAGADVNAKDYAGSTPLRLAAWAGHLEIVEVLLKAGADVNAKDYFGYTPLHLAAYFGHLEIVEVLLKAGADVNAQDKFGKTAFDISIDNGNEDLAEILQKLN"}, "B2": {"name": "DARPin #28 (designed binder)", "chain": "MRGSHHHHHHGSDLGKKLLEAARAGQDDEVRILMANGADVNAKDEEGTTPLHYAAVWGHLEIVEVLLKAGADVNAQDIYGATPADLAALVGHEDIAEVLQKLN"}, "B3": {"name": "DARPin #49 (designed binder)", "chain": "MRGSHHHHHHGSDLGKKLLEAARAGQDDEVRILMANGADVNAQDLNGQTPLHLAADIGHLEIVEVLLKHGADVNAQDYAGSTPLRLAAWAGHLEIVEVLLKNGADVNANDYFGYTPLHLAAYFGHLEIVDVLLKHGADVNAQDKFGKTAFDISIDNGNEDLAEILQKLN"}, "B4": {"name": "DARPin #59 (designed binder)", "chain": "B3 chain with D27G, R31H, D130E"}, "B5": {"name": "DARPin #24 (designed binder)", "chain": "B2 chain with I32E, M34L, A35K, N36A"}, "B6": {"name": "DARPin #38 (designed binder)", "chain": "MRGSHHHHHHGSDLGDKLLWAAKHGQDDEVRILLAAGADVNAKDDEGSTPLHYAAVWGHLETVEVLLKAGADVNAQDIWGATPADLAALLGHEDIAEVLQKLN"}, "B7": {"name": "DARPin #30 (designed binder)", "chain": "B2 chain with I32E, M34L, A35K, N36A, W57Y"}, "B8": {"name": "DARPin #44 (designed binder)", "chain": "MRGSHHHHHHGSDLGAKLLHAAVVGQDDEVRILLAAGADVNAKDKSGHTPLHLAAYSGHLEIVEVLLKAGADVNAKDQEGTTPLHFAASVGHLEIVEVLLKAGADVNAQDHYGATPADLAALIGHEDIAEVLQKLN"}, "B9": {"name": "DARPin #34 (designed binder)", "chain": "MRGSHHHHHHGSDLGDKLLQSDLGRKLLHAARSGQDDEVRILLAAGADVNAKDEDGTTPLHYAAAWGHLEIVEVLLKAGADVNAQDIYGATPADLAAYIGHEDIAEVLQKLN"}}, "note": "Numbering of substitutions follows the chain as printed.", "data": [{"target": "T1, Recombinant human PDGF-BB (human, UniProt P01127 82-190)", "T1 construct": "For SPR it was chemically biotinylated on primary amines and captured on neutravidin; also called PDGF-BB (human); Reliatech 200-055", "T1 sequence (P01127 82-190 limits assumed)": "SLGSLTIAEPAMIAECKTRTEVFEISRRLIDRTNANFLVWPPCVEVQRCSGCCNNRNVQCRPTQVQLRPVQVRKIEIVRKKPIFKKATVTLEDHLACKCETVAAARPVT", "experiment": "receptor competition ELISA (PDGFRbeta), distinct single experiment of FIG. 2", "description": "The inhibition of the binding of PDGF-BB to PDGFRbeta by various concentrations of DARPins with specificity for PDGF-BB and the corresponding fitted inhibition curves are shown for a distinct single experiment. The IC₅₀ values were then calculated to be about 20 and 18 pM for the DARPins #50 (D1) and #28 (D2), respectively. OD, optical density at 450 nm; C, concentration of DARPins in pM. The X axis is shown in logarithmic scale. See below for the definitions of DARPin #50 and 28.\nThe potency of PEGylated anti-PDGF-BB DARPins to inhibit the binding of human PDGF-BB to its receptor PDGFRbeta was determined in a in a receptor competition ELISA (based on PDGF-BB Quantikine, R&D Systems). PDGFRbeta/Fc chimera has been precoated on a microplate. The DARPins were preincubated in assay diluent from the PDGF-BB Quantikine kit (R&D Systems) with a defined amount of PDGF-BB and incubated at room temperature for 2 hours with shaking at 750 rpm. These preincubation mixtures were then transferred into the precoated wells and any PDGF-BB that is not blocked by the DARPins was bound by the immobilized receptor. […] The color development was stopped and the intensity of the color was measured at 405 nm. […] IC₅₀ values were calculated from such titration curves obtained as described above using Graph Pad Prism software and standard procedures known to the person skilled in the art.", "units": {"IC50": "nM"}, "values": [{"binder": "B1", "IC50": "~0.02"}, {"binder": "B2", "IC50": "~0.018"}]}, {"target": "T1, Recombinant human PDGF-BB", "experiment": "SPR (ProteOn), biotinylated PDGF-BB on neutravidin chip, DARPin injected; Kd from on- and off-rates", "description": "(§1) Biotinylated PDGF-BB molecules from human and mouse were immobilized in a flow cell through binding to coated […] and the interaction with various selected DARPins was analyzed.\n(§2) SPR was measured using a ProteOn instrument (BioRad) and measurement was performed according standard procedures known to the person skilled in the art. The running buffer was PBS, pH 7.4, containing 0.005% Tween 20®. Neutravidin was covalently immobilized on a GLC chip (BioRad) to a level of about 8000 resonance units (RU). Immobilization of PDGF-BB on the neutravidin coated chip was then performed. The interaction of DARPin PDGF-BB was then measured by injecting 100 μl running buffer (PBS containing 0.005% Tween®) containing serial dilutions of DARPins of concentration of […] (on-rate measurement), followed by a running buffer flow for between 10 minutes and up to 3 hours at a constant flow rate of 30 μl/min (off-rate measurement). The signals (i.e. resonance unit (RU) values) of an uncoated reference cell and a reference injection (i.e. injection of running buffer only) were subtracted from the RU traces obtained after injection of […] (double-referencing). From the SRP traces obtained from the on-rate and off-rate measurements the on- and off-rate of the corresponding DARPin PDGF-BB interaction can be determined.\n(§3) Dissociation constants (Kd) were calculated from the estimated on- and off-rates using standard procedures known to the person skilled in the art.", "units": {"Kd": "nM"}, "values": [{"binder": "B3", "Kd": 0.0769}, {"binder": "B1", "Kd": 0.115}, {"binder": "B4", "Kd": 0.171}, {"binder": "B5", "Kd": 0.0301}, {"binder": "B2", "Kd": 0.0171}, {"binder": "B6", "Kd": 0.0941}, {"binder": "B7", "Kd": 0.11}, {"binder": "B8", "Kd": 0.0768}, {"binder": "B9", "Kd": 0.0775}]}, {"target": "T2, Recombinant murine PDGF-BB (mouse, UniProt P31240 82-190, limits assumed)", "T2 construct": "For SPR chemically biotinylated on primary amines and captured on neutravidin; also called mouse PDGF-BB; PDGF-BB (mouse)", "T2 sequence (P31240 82-190 limits assumed)": "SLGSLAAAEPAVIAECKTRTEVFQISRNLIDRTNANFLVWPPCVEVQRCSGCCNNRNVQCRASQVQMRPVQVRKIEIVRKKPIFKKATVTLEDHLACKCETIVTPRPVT", "experiment": "SPR (ProteOn), biotinylated PDGF-BB on neutravidin chip, DARPin injected; Kd from on- and off-rates", "description": "as §1, §2, §3", "units": {"Kd": "nM"}, "values": [{"binder": "B3", "Kd": 0.102}, {"binder": "B6", "Kd": 0.0583}, {"binder": "B8", "Kd": 0.0902}, {"binder": "B9", "Kd": 0.0592}]}, {"target": "T1, Recombinant human PDGF-BB", "experiment": "cell-based or functional assay", "units": {"IC50 of inhibition of NIH-3T3 cell proliferation (WST-1)": "nM"}, "values": [{"binder": "B3", "IC50 of inhibition of NIH-3T3 cell proliferation (WST-1)": 1.9}, {"binder": "B4", "IC50 of inhibition of NIH-3T3 cell proliferation (WST-1)": 2}, {"binder": "B5", "IC50 of inhibition of NIH-3T3 cell proliferation (WST-1)": 1.4}, {"binder": "B2", "IC50 of inhibition of NIH-3T3 cell proliferation (WST-1)": 1.6}, {"binder": "B7", "IC50 of inhibition of NIH-3T3 cell proliferation (WST-1)": 3.2}]}, {"target": "T1, Recombinant human PDGF-BB", "experiment": "receptor competition ELISA: DARPin preincubated with PDGF-BB, free PDGF-BB captured on coated PDGFRbeta/Fc; mean IC50", "description": "The potency of PEGylated anti-PDGF-BB DARPins to inhibit the binding of human PDGF-BB to its receptor PDGFRbeta was determined in a in a receptor competition ELISA (based on PDGF-BB Quantikine, R&D Systems). PDGFRbeta/Fc chimera has been precoated on a microplate. The DARPins were preincubated in assay diluent from the PDGF-BB Quantikine kit (R&D Systems) with a defined amount of PDGF-BB and incubated at room temperature for 2 hours with shaking at 750 rpm. These preincubation mixtures were then transferred into the precoated wells and any PDGF-BB that is not blocked by the DARPins was bound by the immobilized receptor. After washing away any unbound substances, a horse radish peroxidase-linked polyclonal antibody specific for PDGF-BB was added to the wells. Following a wash to remove any unbound antibody-enzyme reagent, a substrate solution was added to the wells and color was developing in proportion to the amount of PDGF-BB bound. The color development was stopped and the intensity of the color was measured at […]. Example titration curves are given for a set of DARPins in FIG. 2. IC₅₀ values were calculated from such titration curves obtained as described above using Graph Pad Prism software and standard procedures known to the person skilled in the art.", "units": {"IC50": "nM"}, "values": [{"binder": "B3", "IC50": 0.066}, {"binder": "B1", "IC50": 0.032}, {"binder": "B5", "IC50": 0.015}, {"binder": "B2", "IC50": 0.016}, {"binder": "B6", "IC50": 0.085}, {"binder": "B7", "IC50": 0.49}, {"binder": "B8", "IC50": 0.13}, {"binder": "B9", "IC50": 0.21}]}]}
